B1: TPR t1 (parent)
chain: GACCAAUCUGCCCUCAGAGCUCGAGAACAUCUUCGGAUGCAGAGGAGGCAGGCUUCGGUGGCGCGAUAGCGCCAACGUCCUCAACCUCCAAUGCAUCCCACCACAUGAUGAUGCCUGAAGAGCCUUGGUUUUUUG

Variants of: B1
Experiment: polymerase ribozyme fitness, log enrichment relative to wild type (log ratio); higher = more active; in vitro selection for triplet polymerase activity
Procedure, shortened: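 Only genotypes with ≥10 input reads and ≥1 read per output were kept after Illumina sequencing of input and output libraries. These libraries were PCR-built, transcribed mutants of each subunit of a heterodimeric triplet polymerase ribozyme, each put through one triplicate in vitro selection round with frozen incubation at −7 °C, gel excision of extended constructs, streptavidin-bead capture and RT-PCR. Fitness is a logarithmic ratio of genotype enrichment to wild-type enrichment, from inverse-variance-weighted replicate averages, with the logarithm in base 2.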

Q: For GACCAAUCUGCCCUCAGAGCUCGAGAACAUCUUCGGAUGCAGAGGAGGCAGGUUUCGGUGGCGUGAUAGCGCCAACGUCCUCAACCUCCAAUUCAUCCCACCACAUGAUGAUGCCUGAAGAGCCUUGGUUUUUUG [C53U C64U G93U], which “polymerase ribozyme fitness (log ratio)” value is on record?
A: -1.53

Q: With GACCAAUCUGCCCUCAGAGCUCGAGAACAUCUUCGGAUGCAGAGGAGGCAGGCUUCGGUGGCGCGAUAGCGCCAACGUCCUCAACCUCCAAUGCAUGCCACCUCAUGAUGAUGCCUGAAGAGCCUUGGUUUUUUG [C97G A103U] as the variant, how does the “polymerase ribozyme fitness (log ratio)” value read?
A: -5.1

Q: With GACCAAUCUGCCCUCAGAGCUCGAGAACAUCUUCGGAUGCAGAGGAGGCAGGCUUCGGCGGCGCGAUAGCGCCAACGUCCUCAACCACCAAUGCAUCCCACCACAUGAUGACGCCUGAAGAGCCUUGGUUUUUUG [U59C U87A U112C] as the variant, how does the “polymerase ribozyme fitness (log ratio)” value read?
A: 0.815

Q: With GACCAAUCUGCCCUCAGAGCUCGAGAACAUCUUCGGAUGCAGAGGAGGCAGGCUUCGGCGGCGCGAUAGCGCCAACGUCACCAACCUCCAAUGCAUCCCACCACAUGAUGAUGCCUGAAGAGCCUUGGUUUUUUG [U59C C80A U81C] as the variant, how does the “polymerase ribozyme fitness (log ratio)” value read?
A: -3.7

Q: With GACCAAUCUGCACUCAGAGCUCGAGAACAUCUUCGGAUGGAGAGGAGGCAGGCUUCGGUGGCGCGAUAGCGCCAACGUCCUCAACCUCCAAUGCAUCCCACCAUAUGAUGAUGCCUGAAGAGCCUUGUUUUUUUG [C12A C40G C104U G128U] as the variant, how does the “polymerase ribozyme fitness (log ratio)” value read?
A: -3.15

Q: Which “polymerase ribozyme fitness (log ratio)” value does the source give for GACCAAUCUGCCCUCAGAGCUCGAGAACAUCUUCGGAUGCAGAGGAGGCUGGUUUCGGUGGCGGGAUAGCGCCAACGUCCUCAACCUCCAAUGCAUCCCACCACAUGAUGUUGCCUGAAGAGCUUUGGUUUUUUG [A50U C53U C64G A111U C124U] here?
A: -8.17

Q: With GACCAGUCUGCCCUCAGAGCUCGAGAACACCUUCGGAUGCAGAGGAGGCAGGCUUCGGUGGCGCGAUAGCGCUAACGUCCUCAACCUCCAAUGCAUCCCACCACAUGAUGAUGCCUGAAGAGCAUUGGUUUUUUG [A6G U30C C73U C124A] as the variant, how does the “polymerase ribozyme fitness (log ratio)” value read?
A: -1.64

Q: Which “polymerase ribozyme fitness (log ratio)” value does the source give for GACCAAUCUGCCCUCAGAGCUCGAGAACAUCUUCGUAUGCAGAGGAGGCAGGCUUCGGUGGCGCGAUAGCGCCAACGUCCUCAACCUCCAAUGCAUCCCACCACAUGAUGAUGCCUGAAGCGCCAUUCUUUUUUG [G36U A121C U125A G127U G128C] here?
A: -0.954

Q: With GACCAAUCUGCCCUCAGAGCUCGAGAACAUCUUCGGAUGCAGAGGAGGCAGGCUUCGGUGGCACGAUAGCGCCAACGUCCUCGACCUCCGAUGCAUCGCACCACCUGAUGAUGCCUGAAGAGCCUUGGUUUUUUG [G63A A83G A90G C98G A105C] as the variant, how does the “polymerase ribozyme fitness (log ratio)” value read?
A: -7.87

Q: Which “polymerase ribozyme fitness (log ratio)” value does the source give for GAACAAUCUGCCCUCAGAGCUCGAGAACAUCUUCGGAUGCAGAGGAGGCAGGCUUCGGUGGCGCGAUAGCACCAACGUCCUCAACCUCCAAUGCAUCCCACCACAUGAUGAUGCCUGAAGAGCCUUGGUCUUUUG [C3A G71A U130C] here?
A: -0.935

Q: For GACCAAUCUGCCCUCAGGGCUCGAGAACAUCUUCGGAUGCAGAGGAGGCAGGCUUCGGUGGCGCGAUAGCGCCAACGUCCUCAACCUCCAAUGCAUCCCACCACAUGAUGAUGCCUGAAGAGCCUUGGUUAUUUG [A18G U131A], which “polymerase ribozyme fitness (log ratio)” value is on record?
A: -2.69

Q: With GACCAAUGUGCCCUCAGAGCUCGAGAACAUCUUCGGAUGCAGCGGAGGCUGGCUUCGGUGGCGCGAUAGCGCCAACGUCCUCAACCUCCAAUGCAUCCCACCACAUGAUGAUGCUUGAAGAGCCUUUGUUUUUUG [C8G A43C A50U C115U G127U] as the variant, how does the “polymerase ribozyme fitness (log ratio)” value read?
A: -4.94

Q: For GACCAAUAUGCCCUCAAAGCUCGAGAACAUCUUCGGAUGCAGAGGAGGCAGGCAUCGGUGGCGCGAUAGCUCCAACGUCCUCAACCUCCAAUGAAUCCCACCACAUGAUGAUGCCUGAAGAGCCUUGGUUUUUUG [C8A G17A U54A G71U C94A], which “polymerase ribozyme fitness (log ratio)” value is on record?
A: -4.99

Q: Which “polymerase ribozyme fitness (log ratio)” value does the source give for GACCAAUCUGCCCUCAGAACUCGAGAACAUCUUCGGAUGCAGAGGAGGCAGGCUUCGGUGGCGCGAUAGGGCCAACGUCCUCAAUCUCCAAUGCAUCCCACCACAUGAUGAUGGCUGAAGAGCCUUGGUUUUUUG [G19A C70G C85U C114G] here?
A: -7.51

Q: Which “polymerase ribozyme fitness (log ratio)” value does the source give for GACCAAUCUGCCCUCAGAGCUCGAGAACAUCUUCGGAUGCAGAGGAGGCAGGCUUCGGUGGCGCGAUAGCGCCAACGUCCUCAACCUCCAAUGCAUCUCACCACAUGAUUAUGCCUGAAGAGCCUUGGUUUUUUG [C98U G110U] here?
A: -2.66

Q: Which “polymerase ribozyme fitness (log ratio)” value does the source give for GACCAAUGUGCCCUCAGAGCUCGAGAACAUCUUCGGAUGCAGAGGAGGCAGGCUUAGGUGGCGCGAUAGCGCCAACUUCCUCAACCUGCAAAGCAUCCCACCACAUGAUGAUCCCUGAAGAAGCUUGGUUUUUUG [C8G C56A G77U C88G U92A G113C G122A C123G] here?
A: -3.34

Q: For GACCAAUCUGCCCUCAGAGCUCGAGAAUAUCUUCGGAUGCAGAGGAGGCAGGUUUCGGUGGCGCGAUAGCGCCAACGUCCUCAACCUCCAACGCAUCCCACCACAAGAUGAUGCCUGAAGAGCCUUGGUUUUAUG [C28U C53U U92C U106A U133A], which “polymerase ribozyme fitness (log ratio)” value is on record?
A: -3.09

Q: With GACCAAUCUCCCCUCAGAGCUCGAGAACAUCUUCGGAUGCAGAGGAGGCAGGCUUCGGUGGCGCGAUAGCGCCAACGUCCUCAACCUCUAAUGCAUCCCACCACAUGAUGAUGCCUGAAGAGCCUUGGCUUUUUG [G10C C89U U129C] as the variant, how does the “polymerase ribozyme fitness (log ratio)” value read?
A: -2.54

Q: For GACCAAUCUGCCCUCAGAGCUCGAGAACAUCUUCGGAUGCAGAGGAGGCAGGCUUCGGUGGCGCGAUAGCGCCAAGGUCCUCAACCUCCAAUACAUCCCACCACAUGAUGAUGCCUGAAGAGCGUUGGUUUUUUG [C76G G93A C124G], which “polymerase ribozyme fitness (log ratio)” value is on record?
A: 1.31

Q: With GACCAAUCUGCCCUCAGAGCUCGGGAACAUCUUCGGAUGCAGAGGAGGCAGGCUUCGGUGGCGCGAUAGCGCCAACGUCCUCAACCUCCAAUGCAUCCCACCACAUGAUGAUGGCUGAAGAGCCUUGGUUUUUUG [A24G C114G] as the variant, how does the “polymerase ribozyme fitness (log ratio)” value read?
A: -3.83

Q: For GACCAAUCUGCCCUCAGAGCUCGAGAACAUCUUCGGUUGCAGAGGAGGCAGGCUUCGGUGGCGCGAUAGCGCCAACGCCCUCAACCCCCAAUGCAUCCCACCACAUGAUGAUGCCUGAAGAGCCUUGGUUUUUUG [A37U U78C U87C], which “polymerase ribozyme fitness (log ratio)” value is on record?
A: 0.269

Reference: the RNAGym collection of RNA variant scans (doi:10.1073/pnas.2313332121)
